Measurements taken from patent US20250270301A1 (GEN2 NEUROSCIENCE, published 2025).
Positions count from the first letter of the chain named.

Key:
Bovine serum albumin = molecular target: T1, Bovine serum albumin (bovine, UniProt P02769 25-607); assay: ELISA on 1% BSA, HEK supernatant, anti-human IgG-HRP, n=1
T1 construct: also called BSA
Description: FIG. 7. A panel of humanised anti-tau IgG bind to full length recombinant 2N4R tau in an ELISA format. Supernatants from HEK cells transiently transfected with each IgG clone were tested at 1:100 for binding to full length recombinant 2N4R tau (solid bars). […] Binding of anti-tau hIgG1 was detected using an HRP-conjugated anti-human secondary antibody and data are shown from a representative experiment (n=1 replicate).
Antigen was removed from wells and the plates were then blocked for 1 hour at RT with 5% dried milk in 1×TBS. Blocking solution was removed, HEK293 cell supernatant (1:100 in 1% BSA/1×TBS) was added to relevant wells, and plates were incubated for 1 hour at RT with gentle shaking. Plates were then washed four times with TBS/0.1% Tween (TBST). Goat anti-human IgG-HRP antibody (Thermo Fisher Scientific, Waltham, MA, USA), diluted 1:2000 in 5% milk/TBS, was added to each well and plates were incubated for 1 hour at RT with gentle shaking before being washed four times with TBST. 3,3′,5,5′-tetramethylbenzidine (TMB) ELISA solution was added to each well and plates were incubated for 15 mins at RT. An equal volume of 1 M sulfuric acid was added to each well and OD was measured at 450 nm.

[1] = molecular target: T2, full length recombinant human 2N4R tau (human, UniProt P10636 1-758); assay: SPR SCK, IgG on Protein A, tau in flow
T2 construct: bought from rPeptide; pHrodo Red maleimide-labelled where it stands in uptake assays; also called tau1-441; full length tau
Description: 21.5 Assessment of antibody binding to tau (Biacore SCK analysis): Binding of anti-tau hIgG1 to full length recombinant 2N4R tau (Rpeptide; SEQ ID NO: 2) was assessed using the Biacore T200 (GE Healthcare, Chicago, IL, USA) running Biacore T200 Evaluation Software V2.0.1. hIgG1 were immobilised on a Protein A capture sensor chip in running buffer (HBS-EP+ buffer containing 1 mg/mL BSA) at 25° C., captured to ˜50 RU at 10 μL/min. For single-cycle kinetics experiments, recombinant 2N4R tau was flowed at concentrations ranging from 1.25 nM to 10 nM (2-fold dilutions) with an association time of 60 s and a dissociation time of 200 s. Curves were compared to a reference cell that was mock immobilized (no antibody present).

T1 sequence (P02769 25-607 limits assumed): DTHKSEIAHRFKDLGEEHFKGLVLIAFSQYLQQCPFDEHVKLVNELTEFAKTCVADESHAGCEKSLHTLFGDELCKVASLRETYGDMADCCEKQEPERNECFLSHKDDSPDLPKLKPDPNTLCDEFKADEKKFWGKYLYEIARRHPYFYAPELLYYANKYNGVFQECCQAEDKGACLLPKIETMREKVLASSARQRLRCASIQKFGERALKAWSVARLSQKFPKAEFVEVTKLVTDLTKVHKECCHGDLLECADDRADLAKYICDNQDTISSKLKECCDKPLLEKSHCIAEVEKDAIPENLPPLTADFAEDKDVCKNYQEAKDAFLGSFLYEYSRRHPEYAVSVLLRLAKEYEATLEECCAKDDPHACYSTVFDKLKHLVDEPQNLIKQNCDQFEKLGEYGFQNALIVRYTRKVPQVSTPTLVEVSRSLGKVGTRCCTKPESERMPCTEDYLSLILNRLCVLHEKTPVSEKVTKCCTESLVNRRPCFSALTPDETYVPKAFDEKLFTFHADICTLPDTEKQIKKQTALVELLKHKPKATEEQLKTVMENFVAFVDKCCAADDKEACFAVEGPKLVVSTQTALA
T2 sequence (P10636 other isoform, or with tags, fused parts or gaps limits assumed): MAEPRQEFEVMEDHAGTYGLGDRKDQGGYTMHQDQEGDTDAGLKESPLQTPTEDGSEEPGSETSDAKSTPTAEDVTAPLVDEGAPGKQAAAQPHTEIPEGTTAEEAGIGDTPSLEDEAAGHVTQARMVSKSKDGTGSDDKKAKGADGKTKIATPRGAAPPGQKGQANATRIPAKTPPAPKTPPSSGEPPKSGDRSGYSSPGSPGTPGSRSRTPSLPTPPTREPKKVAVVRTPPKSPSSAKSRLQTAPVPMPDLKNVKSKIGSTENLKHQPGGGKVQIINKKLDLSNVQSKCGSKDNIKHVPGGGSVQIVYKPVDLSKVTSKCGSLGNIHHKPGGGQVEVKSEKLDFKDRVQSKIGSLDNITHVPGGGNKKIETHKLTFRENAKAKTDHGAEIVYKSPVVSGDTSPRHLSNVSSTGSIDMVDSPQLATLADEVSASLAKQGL

B1: #44 VH5VK1 humanised hIgG1 (antibody, V domains shown)
VH: QVQLQESGPGLVKPSETLSLTCTVSGIDLSSYAMAWVRQAPGKGLEWIGCIDRRGGTFYASWVKGRFTISRDNSKNTLDLQMTSLTAEDTATYYCARDSGAFDPWGQGTLVTVSS
VL: QIVMTQSPSSLSASVGDRVTITCQASQSVYDNYLAWYQQKPGQPPKLLIHAASNLASRVPSRFKGSGSGTEFTLTISSLQCDDFATYYCLGEFSCTTTDCNVFGGGTEVVIK
notes: also called VH5Vκ1
Does B1 bind (Bovine serum albumin)?
Result: no binding (tested: supernatant 1:100)

And the Kd [1]?
The Kd was 8.31 nM.

What about the “Relative KD (to VH0VK0)” value [1] of the same binder?
The value was 2.17.

What about the koff [1] of the same binder?
Its koff is 0.187 s⁻¹.

What about the kon [1] of the same binder?
The kon was 2.25e+07 M⁻¹ s⁻¹.

B2: #44 VH1VK2 humanised hIgG1 (antibody, V domains shown)
VH: QSVQESGGGLVKPSETLSLTCTVSGIDLSSYAMAWVRQAPGKGLEWIGCIDRRGGTFYASWVKGRFTISKTSTTVDLKMTSLTAEDTATYFCARDSGAFDPWGQGTLVTVSS
VL: B1 VL with R58G, C81P, E108K, V110E
notes: also called VH1Vκ2
Which results are given for B2?
binding result (Bovine serum albumin): no binding (tested: supernatant 1:100); Kd [1]: 4.26 nM; Relative KD (to VH0VK0) [1]: 1.11; koff [1]: 0.0232 s⁻¹; kon [1]: 5.43e+06 M⁻¹ s⁻¹

B3: #44 VH1VK4 humanised hIgG1 (antibody, V domains shown)
VH: B2 VH
VL: B1 VL with Q1D, V3Q, R58G, K64S, C81P, E108K, V110E
notes: also called VH1Vκ4
Does B3 bind (Bovine serum albumin)?
Result: no binding (tested: supernatant 1:100)

What about the Kd [1] of the same binder?
Its Kd is 4.15 nM.

And the “Relative KD (to VH0VK0)” value [1]?
The value was 1.08.

And the koff [1]?
Its koff is 0.0208 s⁻¹.

What about the kon [1] of the same binder?
Its kon is 5.01e+06 M⁻¹ s⁻¹.

B4: #44 VH1VK1 humanised hIgG1 (antibody, V domains shown)
VH: B2 VH
VL: B1 VL
notes: also called VH1Vκ1
Does B4 bind (Bovine serum albumin)?
Result: no binding (tested: supernatant 1:100)

What about the Kd [1] of the same binder?
The Kd was 3.16 nM.

What about the “Relative KD (to VH0VK0)” value [1] of the same binder?
The value was 0.83.

What about the koff [1] of the same binder?
Its koff is 0.0232 s⁻¹.

And the kon [1]?
The kon was 7.35e+06 M⁻¹ s⁻¹.

B5: #44 VH1VK3 humanised hIgG1 (antibody, V domains shown)
VH: B2 VH
VL: B1 VL with Q1D, V3Q, R58G, C81P, E108K, V110E
notes: also called VH1Vκ3
Does B5 bind (Bovine serum albumin)?
Result: no binding (tested: supernatant 1:100)

What about the Kd [1] of the same binder?
Its Kd is 5 nM.

And the “Relative KD (to VH0VK0)” value [1]?
The value was 1.31.

And the koff [1]?
Its koff is 0.0129 s⁻¹.

And the kon [1]?
The kon was 2.58e+06 M⁻¹ s⁻¹.

B6: #44 VH2VK2 humanised hIgG1 (antibody, V domains shown)
VH: B2 VH with G8P, K78Q
VL: B1 VL with R58G, C81P, E108K, V110E
notes: also called VH2Vκ2
Which results are given for B6?
binding result (Bovine serum albumin): no binding (tested: supernatant 1:100); Kd [1]: 5 nM; Relative KD (to VH0VK0) [1]: 1.31; koff [1]: 0.0182 s⁻¹; kon [1]: 3.63e+06 M⁻¹ s⁻¹

B7: #44 VH2VK1 humanised hIgG1 (antibody, V domains shown)
VH: B2 VH with G8P, K78Q
VL: B1 VL
notes: also called VH2Vκ1
Does B7 bind (Bovine serum albumin)?
Result: no binding (tested: supernatant 1:100)

And the Kd [1]?
The Kd was 7.94 nM.

What about the “Relative KD (to VH0VK0)” value [1] of the same binder?
Its value is 2.07.

What about the koff [1] of the same binder?
Its koff is 0.021 s⁻¹.

What about the kon [1] of the same binder?
The kon was 2.64e+06 M⁻¹ s⁻¹.

B8: #44 VH5VK4 humanised hIgG1 (antibody, V domains shown)
VH: B1 VH
VL: B1 VL with Q1D, V3Q, R58G, K64S, C81P, E108K, V110E
notes: also called VH5Vκ4
Does B8 bind (Bovine serum albumin)?
Result: no binding (tested: supernatant 1:100)

What about the Kd [1] of the same binder?
Its Kd is 9.63 nM.

And the “Relative KD (to VH0VK0)” value [1]?
The value was 2.51.

What about the koff [1] of the same binder?
The koff was 0.0684 s⁻¹.

And the kon [1]?
The kon was 7.11e+06 M⁻¹ s⁻¹.

B9: #44 VH5VK2 humanised hIgG1 (antibody, V domains shown)
VH: B1 VH
VL: B1 VL with R58G, C81P, E108K, V110E
notes: also called VH5Vκ2
Does B9 bind (Bovine serum albumin)?
Result: no binding (tested: supernatant 1:100)

And the Kd [1]?
Its Kd is 12.6 nM.

What about the “Relative KD (to VH0VK0)” value [1] of the same binder?
The value was 3.29.

B10: #44 VH5VK3 humanised hIgG1 (antibody, V domains shown)
VH: B1 VH
VL: B1 VL with Q1D, V3Q, R58G, C81P, E108K, V110E
notes: also called VH5Vκ3
What does the source list for B10?
binding result (Bovine serum albumin): no binding (tested: supernatant 1:100); Kd [1]: 14.2 nM; Relative KD (to VH0VK0) [1]: 3.71; koff [1]: 0.0406 s⁻¹; kon [1]: 2.86e+06 M⁻¹ s⁻¹
